Target: Ca2+/calmodulin-dependent protein kinase II (CaMKII) (mouse (endogenous in striatum)) (UniProt P28652)
Assay: co-IP; endogenous proteins in mouse striatum lysate (20 mM Tris-HCl pH 7.4, 50 mM NaCl, 0.5% NP-40, 10 mM HEPES, 0.5 mM EDTA); 2 μg primary antibody on Protein A/G or Protein G magnetic beads, lysate at 4 °C overnight; western blot; for CaMKII–PPP1CC, WT and Sh3rf2 KO striatum compared

Sequence of UniProt P28652 (P28652 whole entry): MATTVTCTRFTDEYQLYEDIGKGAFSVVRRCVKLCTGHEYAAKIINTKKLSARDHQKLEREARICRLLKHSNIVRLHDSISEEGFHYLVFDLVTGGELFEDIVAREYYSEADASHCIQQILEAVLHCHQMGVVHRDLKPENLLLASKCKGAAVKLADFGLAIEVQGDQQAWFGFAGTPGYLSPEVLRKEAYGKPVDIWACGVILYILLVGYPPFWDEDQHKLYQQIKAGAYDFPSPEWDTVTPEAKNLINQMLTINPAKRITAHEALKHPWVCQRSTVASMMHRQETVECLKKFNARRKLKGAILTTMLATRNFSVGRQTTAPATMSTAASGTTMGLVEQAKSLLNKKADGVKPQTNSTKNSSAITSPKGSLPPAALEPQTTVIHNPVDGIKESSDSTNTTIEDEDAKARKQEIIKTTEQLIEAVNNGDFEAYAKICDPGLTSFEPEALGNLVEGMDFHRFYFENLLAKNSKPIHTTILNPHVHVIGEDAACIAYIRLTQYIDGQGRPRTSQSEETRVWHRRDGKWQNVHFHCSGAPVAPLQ

reduction of CaMKII–PPP1CC co-precipitate in Sh3rf2 KO against WT striatum: 80%
Substance: PP1 catalytic subunit gamma (PPP1CC) (from UniProt P63087 1-323) (enzyme)

Reference: PMC12485048
